Data published in the supplement of paper PMC5998384.

Experiments:
HeLa Kyoto [1] = assay: solubility in G1/S (NP-40 vs SDS abundance) (log2 ratio); higher = more soluble; settings: cell cycle stage: G1/S
HeLa Kyoto [2] = assay: thermal stability score vs G1/S (z-score of summed log2 fold changes over temperatures); higher = more thermally stable than in G1/S
HeLa Kyoto [3] = assay: solubility change mitosis vs G1/S (difference of NP-40 vs SDS log2 ratios) (log2 ratio difference); higher = more soluble in mitosis
HeLa Kyoto [4] = assay: melting temperature (median over replicates), in situ; higher = more thermally stable
[5] = cell cycle stage: early G1 (4.5 h after nocodazole release)
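Wherever melting temperature (median over replicates), in situ is given: HeLa Kyoto cells synchronized by double thymidine or nocodazole block, proteins quantified by TMT10plex mass spectrometry, three independent biological replicates.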
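Wherever solubility change mitosis vs G1/S (difference of NP-40 vs SDS log2 ratios) is given: synchronized HeLa Kyoto cells (double thymidine block for G1/S, nocodazole release for mitosis), protein amounts in NP-40 versus SDS lysates quantified by mass spectrometry, three biological replicates.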
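Wherever solubility in G1/S (NP-40 vs SDS abundance) is given: HeLa Kyoto cells arrested at G1/S by double thymidine block, proteins quantified by TMT10plex mass spectrometry in mild NP-40 versus SDS extracts, three biological replicates.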
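Wherever thermal stability score vs G1/S (z-score of summed log2 fold changes over temperatures) is given: synchronized HeLa Kyoto cells, proteins quantified by TMT10plex mass spectrometry, three biological replicates, mitosis taken 0.5 h after nocodazole release, G1/S directly after double thymidine block.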

Row | Sequence | solubility in G1/S (log2) (HeLa Kyoto [1]) | thermal stability score (HeLa Kyoto [2]; [5]) | thermal stability score (HeLa Kyoto [2]; cell cycle stage: mitosis) | solubility change mitosis (log2) (HeLa Kyoto [3]) | melting temperature (HeLa Kyoto [4]; cell cycle stage: G1/S) [°C] | melting temperature (HeLa Kyoto [4]; cell cycle stage: mitosis) [°C]
1 | MEPLSHRGLPRLSWIDTLYSNFSYGTDEYDGEGNEEQKGPPEGSETMPYIDESPTMSPQLSARSQGGGDGVSPTPPEGLAPGVEAGKGLEMRKLVLSGFLASEEIYINQLEALLLPMKPLKATATTSQPVLTIQQIETIFYKIQDIYEIHKEFYDNLCPKVQQWDSQVTMGHLFQKLASQLGVYKAFVDNYKVALETAEKCSQSNNQFQKISEELKVKGPKDSKDSHTSVTMEALLYKPIDRVTRSTLVLHDLLKHTPVDHPDYPLLQDALRISQNFLSSINEDIDPRRTAVTTPKGETRQLVKDGFLVEVSESSRKLRHVFLFTDVLLCAKLKKTSAGKHQQYDCKWYIPLADLVFPSPEESEASPQVHPFPDHELEDMKMKISALKSEIQKEKANKGQSRAIERLKKKMFENEFLLLLNSPTIPFRIHNRNGKSYLFLLSSDYERSEWREAIQKLQKKDLQAFVLSSVELQVLTGSCFKLRTVHNIPVTSNKDDDESPGLYGFLHVIVHSAKGFKQSANLYCTLEVDSFGYFVSKAKTRVFRDTAEPKWDEEFEIELEGSQSLRILCYEKCYDKTKVNKDNNEIVDKIMGKGQIQLDPQTVETKNWHTDVIEMNGIKVEFSMKFTSRDMSLKRTPSKKQTGVFGVKISVVTKRERSKVPYIVRQCVEEVEKRGIEEVGIYRISGVATDIQALKAVFDANNKDILLMLSDMDINAIAGTLKLYFRELPEPLLTDRLYPAFMEGIALSDPAAKENCMMHLLRSLPDPNLITFLFLLEHLKRVAEKEPINKMSLHNLATVFGPTLLRPSEVESKAHLTSAADIWSHDVMAQVQVLLYYLQHPPISFAELKRNTLYFSTDV [ABR] | -0.0712 | 0.864 | 1.73 | -0.111 | 48.8 | 49.1
2 | MEPRPTAPSSGAPGLAGVGETPSAAALAAARVELPGTAVPSVPEDAAPASRDGGGVRDEGPAAAGDGLGRPLGPTPSQSRFQVDLVSENAGRAAAAAAAAAAAAAAAGAGAGAKQTPADGEASGESEPAKGSEEAKGRFRVNFVDPAASSSAEDSLSDAAGVGVDGPNVSFQNGGDTVLSEGSSLHSGGGGGSGHHQHYYYDTHTNTYYLRTFGHNTMDAVPRIDHYRHTAAQLGEKLLRPSLAELHDELEKEPFEDGFANGEESTPTRDAVVTYTAESKGVVKFGWIKGVLVRCMLNIWGVMLFIRLSWIVGQAGIGLSVLVIMMATVVTTITGLSTSAIATNGFVRGGGAYYLISRSLGPEFGGAIGLIFAFANAVAVAMYVVGFAETVVELLKEHSILMIDEINDIRIIGAITVVILLGISVAGMEWEAKAQIVLLVILLLAIGDFVIGTFIPLESKKPKGFFGYKSEIFNENFGPDFREEETFFSVFAIFFPAATGILAGANISGDLADPQSAIPKGTLLAILITTLVYVGIAVSVGSCVVRDATGNVNDTIVTELTNCTSAACKLNFDFSSCESSPCSYGLMNNFQVMSMVSGFTPLISAGIFSATLSSALASLVSAPKIFQALCKDNIYPAFQMFAKGYGKNNEPLRGYILTFLIALGFILIAELNVIAPIISNFFLASYALINFSVFHASLAKSPGWRPAFKYYNMWISLLGAILCCIVMFVINWWAALLTYVIVLGLYIYVTYKKPDVNWGSSTQALTYLNALQHSIRLSGVEDHVKNFRPQCLVMTGAPNSRPALLHLVHDFTKNVGLMICGHVHMGPRRQAMKEMSIDQAKYQRWLIKNKMKAFYAPVHADDLREGAQYLMQAAGLGRMKPNTLVLGFKKDWLQADMRDVDMYINLFHDAFDIQYGVVVIRLKEGLDISHLQGQEELLSSQEKSPGTKDVVVSVEYSKKSDLDTSKPLSEKPITHKVEEEDGKTATQPLLKKESKGPIVPLNVADQKLLEASTQFQKKQGKNTIDVWWLFDDGGLTLLIPYLLTTKKKWKDCKIRVFIGGKINRIDHDRRAMATLLSKFRIDFSDIMVLGDINTKPKKENIIAFEEIIEPYRLHEDDKEQDIADKMKEDEPWRITDNELELYKTKTYRQIRLNELLKEHSSTANIIVMSLPVARKGAVSSALYMAWLEALSKDLPPILLVRGNHQSVLTFYS [SLC12A2] | -0.0146 | 1.53 | 1.39 | -0.137 | 53.4 | 53.3
3 | MERAVQGTDGGGGSNSSSRSSSRATSAGSSPSCSLAGRGVSSRSAAAGLGGGGSRSSPGSVAASPSGGGGRRREPALEGVLSKYTNLLQGWQNRYFVLDFEAGILQYFVNEQSKHQKPRGVLSLSGAIVSLSDEAPHMLVVYSANGEMFKLRAADAKEKQFWVTQLRACAKYHMEMNSKSAPSSRSRSLTLLPHGTPNSASPCSQRHLSVGAPGVVTITHHKSPAAARRAKSQYSGQLHEVREMMNQVEGQQKNLVHAIESLPGSGPLTALDQDLLLLKATSAATLSCLGECLNLLQQSVHQAGQPSQKPGASENILGWHGSKSHSTEQLKNGTLGSLPSASANITWAILPNSAEDEQTSQPEPEPNSGSELVLSEDEKSDNEDKEETELGVMEDQRSIILHLISQLKLGMDLTKVVLPTFILEKRSLLEMYADFMAHPDLLLAITAGATPEERVICFVEYYLTAFHEGRKGALAKKPYNPIIGETFHCSWEVPKDRVKPKRTASRSPASCHEHPMADDPSKSYKLRFVAEQVSHHPPISCFYCECEEKRLCVNTHVWTKSKFMGMSVGVSMIGEGVLRLLEHGEEYVFTLPSAYARSILTIPWVELGGKVSINCAKTGYSATVIFHTKPFYGGKVHRVTAEVKHNPTNTIVCKAHGEWNGTLEFTYNNGETKVIDTTTLPVYPKKIRPLEKQGPMESRNLWREVTRYLRLGDIDAATEQKRHLEEKQRVEERKRENLRTPWKPKYFIQEGDGWVYFNPLWKAH [OSBPL10] | 0.0171 | -0.0143 | -0.526 | 0.13 | 48.6 | 51
